Assays:
sperm-zona binding = test: Sperm-egg (zona pellucida) binding assay; type: cell-based, mouse
Description: All gametes were placed and handled within TYH medium. […] were isolated from wild-type mice and ACE knockout mice, and dispersed in 250 μl of medium. After sperms were floated for 15 minutes, transferred to 1.5 ml medium and incubated for at least 1 hour. Eggs were separated from superovulated mice and treated with 1 mg/ml of hyaluronidase (Sigma) on THY medium for removing laminated cells. Incubated sperms (approximately 2.0×10^6 sperm/ml) were treated for 90 min with 0.2 U wild-type ACE (ACE-WT), 0.2 U ACE-E414D, 1.0 IU/ml PI-PLC, or […] PI-PLC with 4 mM inositol monophosphate (Sigma), 4 mM inositol monophosphate, and buffer (PBS) alone. For the sperm-egg (zona pellucida) binding assay, gametes were co-incubated in a TYH droplet covered with mineral oil for 1 h, washed gently in PBS and fixed with 4% paraformaldehyde/PBS. The oocytes were visualized at 200× under a light microscope (Olympus) and the number of sperms was counted at a focus showing the widest diameter of eggs.
In addition, the effect of ACE on sperm-egg binding was examined. That is, Epididymal sperms of both wild-type and knockout mice were treated with either wild-type or peptidase-inactivated (E414D) ACEs or PI-PLC and then incubated with unfertilized eggs from C57BL/6 mice. These treatments had no effects on wild-type sperm-zona binding.

DAF = settings: erythrocyte having prominent acylation; cited from earlier work
PLAP = PLAP conversion assay (GPI-anchored protein releasing activity); type: biochemical; settings: immunoblotting of PLAP
Description: This assay uses a nature of nonionic detergent, TritonX-114, which distributes water-soluble molecules and hydrophobia molecules soluble to detergent. By the PLAP conversion assay, GPI-anchored protein releasing activity in a course of purification was monitored. PLAP was prepared by expressing cDNA in COS7 cells, extracted by buffer containing 20 mM Tris, pH 8.0, 150 mM NaCl, 1% TritonX-114, Complete™ protease-inhibitor and the detergent-soluble phase was collected after partitioning at 37° C. PLAP was purified by DEAE-cellulose ionic exchange liquid chromatography (LC) (elution buffer: […] tris pH8.0, 0.1% TritonX-100, 0 mM-500 mM NaCl gradient) and anti-PLAP antibody column (antibody: rabbit anti-PLAP polyclonal antibody, Biomeda; Column: Hitrap NHS-Activated HP, Amercham Bioscience; elution buffer: 100 mM glycine pH2.8). Using detergent-soluble PLAP protein as substrate performed assay. PLAP activity was measured with an alkaline phosphatase detection kit (Nacalai tesque). The conversion reaction was performed in 100 mM Tris, pH 7.5, 5 mM CaCl2, 150 mM NaCl and 0.3 IU/ml of PLAP for 90 min at 37° C. The reaction was stopped by adding TritonX-114 at a final concentration of 2% and 1 mM EDTA, followed by microcentrifugation at 25° C. The water-soluble phase was collected and PLAP activity was measured by the alkaline phosphatase detection kit. […]

[1] = Peptidase activity of ACE; type: biochemical; settings: relative to wild-type ACE
Description: FIG. 7 is a measurement of peptidase activity (Pase). The E414D is a mutant that Glu414 in the peptidase active site was substituted to Asp. WT, wild-type ACE-T. Procedures were accorded with the description of Kasahara and Ashihara, Clin Chem. 27:1922-1925.
The obtained PCR product encodes a FLAG-tagged version of the soluble testicular isoform. The cDNA for peptidase-inactivated mutant with amino acid Glu414 replaced by Asp was prepared by the site-directed mutagenesis with the mutation promer: 5′-cttggtgatag cgcaccacga tatgggccac atccagtatt tcatgca-3′ (SEQ ID NO: 3). The culture supernatants of COS7 cells transfected with the ACE cDNAs were collected and recombinant ACEs were purified by anti-FLAG M2-agarose affinity column (Sigma). The somatic isoform of ACE (ACE-S) from rabbit lung (Sigma A-6778) was also used according to the manufacturer's protocol. The peptidase activity of the ACE was measured by the reported method (Kawahara and Ashihara, Clin. Chem. 27:1922-1925, 1981). 1.9. FACS Analysis

CD59 = test: FACS analysis of shedding, CD59 on HeLa cells; type: cell-based, human; settings: filipin pre-treated HeLa cells
EGFP-GPI [2] = test: FACS analysis of shedding, EGFP-GPI on F9 cells; type: cell-based; settings: without filipin pre-treatment
prion protein = settings: HEK293 cells, 1.0 U/ml
EGFP-GPI [3] = test: Radiolabeling analysis of released EGFP-GPI from F9 cells; type: cell-based; settings: filipin-pretreated F9 cells
Description: F9 cells expressing EGFP-GPI were metabolically labeled with 0.2 mCi/ml of [^32P]-orthophosphoric acid (Amersham Bioscience) or 0.1 mCi/ml of [^3H]-ethanolamine (Amersham Bioscience) for 16 h. Filipin-pretreated cells were incubated with 0.5 μM of ACE, 1.0 IU/ml of PI-PLC or 10% lysate of mouse submaxillary gland containing mouse glandular kallikrein (mGK; enzyme digesting EGFP at near C-terminus) for 1 h at 37° C. Released EGFP was immunoprecipitated with anti-GFP antibody, subjected to SDS-PAGE and transferred onto nitrocellulose membrane. The quantity of EGFP-GPI protein was evaluated by measuring the density of bands detected on EGFP immunoblotting by using a densitometer (Molecular Device) and radioactivity of the cognate band was determined by a liquid scintillation counter.
Therefore, the F9 cells expressing EGFP-GPI were metabolically labeled with [^32P]-phosphate or [^3H]-ethanolamine, and treated with ACE, PI-PLC or mGK. Then, the released proteins from the cells were applied to EGFP immunoblotting, to measure radioactivity for each band (FIG. 15). Measurements were performed at least four times, and the almost same results were obtained. Although the released EGFP-GPI products with ^32P or ^3H labeling were not detected by mGK treatments, both were detected by ACE treatment or PI-PLC treatment, indicating the presence of a portion of GPI-anchor structure in the ACE-released molecules.

E-cadherin = test: FACS analysis of shedding, E-cadherin on F9 cells; type: cell-based, mouse

Molecule: O=P(O)(O)O[C@@H]1[C@@H](O)[C@H](O)[C@@H](O)[C@H](O)[C@@H]1O [inositol monophosphate, reference compound]
- inhibition of the PI-PLC effect on egg binding of ACE knockout sperm (sperm-zona binding; 4 mM with PI-PLC): inhibition

B1: GPI-PLD: only mammalian enzyme known so far showing GPI-anchor-cleaving activity (protein, UniProt P80108 24-840, looked up)
Phosphatidylinositol-glycan-sp …: CGLSTHVEIGHRALEFLQLHNGRVNYRELLLEHQDAYQAGIVFPDCFYPSICKGGKFHDVSESTHWTPFLNASVHYIRENYPLPWEKDTEKLVAFLFGITSHMAADVSWHSLGLEQGFLRTMGAIDFHGSYSEAHSAGDFGGDVLSQFEFNFNYLARRWYVPVKDLLGIYEKLYGRKVITENVIVDCSHIQFLEMYGEMLAVSKLYPTYSTKSPFLVEQFQEYFLGGLDDMAFWSTNIYHLTSFMLENGTSDCNLPENPLFIACGGQQNHTQGSKMQKNDFHRNLTTSLTESVDRNINYTERGVFFSVNSWTPDSMSFIYKALERNIRTMFIGGSQLSQKHVSSPLASYFLSFPYARLGWAMTSADLNQDGHGDLVVGAPGYSRPGHIHIGRVYLIYGNDLGLPPVDLDLDKEAHRILEGFQPSGRFGSALAVLDFNVDGVPDLAVGAPSVGSEQLTYKGAVYVYFGSKQGGMSSSPNITISCQDIYCNLGWTLLAADVNGDSEPDLVIGSPFAPGGGKQKGIVAAFYSGPSLSDKEKLNVEAANWTVRGEEDFSWFGYSLHGVTVDNRTLLLVGSPTWKNASRLGHLLHIRDEKKSLGRVYGYFPPNGQSWFTISGDKAMGKLGTSLSSGHVLMNGTLKQVLLVGAPTYDDVSKVAFLTVTLHQGGATRMYALTSDAQPLLLSTFSGDRRFSRFGGVLHLSDLDDDGLDEIIMAAPLRIADVTSGLIGGEDGRVYVYNGKETTLGDMTGKCKSWITPCPEEKAQYVLISPEASSRFGSSLITVRSKAKNQVVIAAGRSSLGARLSGALHVYSLGSD
- release of DAF from the intact erythrocyte (DAF): could not release

B2: ACE (E414D): peptidase-inactivated mutant ACE with amino acid Glu414 replaced by Asp (protein, listed as Mus musculus)
chain: MGQGWATPGLPSFLFLLLCCGHHLLVLSQVATDHVTANQGITNQATTRSQTTTHQATIDQTTQIPNLETDEAKADRFVEEYDRTAQVLLNEYAEANWQYNTNITIEGSKILLEKSTEVSNHTLKYGTRAKTFDVSNFQNSSIKRIIKKLQNLDRAVLPPKELEEYNQILLDMETTYSLSNICYTNGTCMPLEPDLTNMMATSRKYEELLWAWKSWRDKVGRAILPFFPKYVEFSNKIAKLNGYTDAGDSWRSLYESDNLEQDLEKLYQELQPLYLNLHAYVRRSLHRHYGSEYINLDGPIPAHLLGNMWAQTWSNIYDLVAPFPSAPNIDATEAMIKQGWTPRRIFKEADNFFTSLGLLPVPPEFWNKSMLEKPTDGREVVCHPSAWDFYNGKDFRIKQCTSVNMEDLVIAHHDMGHIQYFMQYKDLPVTFREGANPGFHEAIGDIMALSVSTPKHLYSLNLLSTEGSGYEYDINFLMKMALDKIAFIPFSYLIDQWRWRVFDGSITKENYNQEWWSLRLKYQGLCPPVPRSQGDFDPGSKFHVPANVPYVRYFVSFIIQFQFHEALCRAAGHTGPLHKCDIYQSKEAGKLLADAMKLGYSKPWPEAMKLITGQPNMSASAMMNYFKPLTEWLVTENRRHGETLGWPEYNWAPNTARAEGSTAESNRVNFLGLYLEPQQARVGQWVLLFLGVALLVATVGLAHRLYNIRNHHSLRRPHRGPQFGSEVELRHSLAHRLYNIRNHHSLRRPHRGPQFGSEVELRHS
- GPI-anchored protein releasing activity compared with wild-type ACE (PLAP): not changed
- peptidase activity compared with wild-type ACE [1]: less than 1/1000
- sperm-zona binding of ACE knockout sperm (sperm-zona binding; epididymal sperm of ACE knockout mice, eggs from C57BL/6 mice): vigorously restored

B3: ACE: angiotensin-converting enzyme, isoform not named at the place (ACE-S in the FACS tests of b107/b108) (protein, listed as Mus musculus)
chain: MGQGWATPGLPSFLFLLLCCGHHLLVLSQVATDHVTANQGITNQATTRSQTTTHQATIDQTTQIPNLETDEAKADRFVEEYDRTAQVLLNEYAEANWQYNTNITIEGSKILLEKSTEVSNHTLKYGTRAKTFDVSNFQNSSIKRIIKKLQNLDRAVLPPKELEEYNQILLDMETTYSLSNICYTNGTCMPLEPDLTNMMATSRKYEELLWAWKSWRDKVGRAILPFFPKYVEFSNKIAKLNGYTDAGDSWRSLYESDNLEQDLEKLYQELQPLYLNLHAYVRRSLHRHYGSEYINLDGPIPAHLLGNMWAQTWSNIYDLVAPFPSAPNIDATEAMIKQGWTPRRIFKEADNFFTSLGLLPVPPEFWNKSMLEKPTDGREVVCHPSAWDFYNGKDFRIKQCTSVNMEDLVIAHHEMGHIQYFMQYKDLPVTFREGANPGFHEAIGDIMALSVSTPKHLYSLNLLSTEGSGYEYDINFLMKMALDKIAFIPFSYLIDQWRWRVFDGSITKENYNQEWWSLRLKYQGLCPPVPRSQGDFDPGSKFHVPANVPYVRYFVSFIIQFQFHEALCRAAGHTGPLHKCDIYQSKEAGKLLADAMKLGYSKPWPEAMKLITGQPNMSASAMMNYFKPLTEWLVTENRRHGETLGWPEYNWAPNTARAEGSTAESNRVNFLGLYLEPQQARVGQWVLLFLGVALLVATVGLAHRLYNIRNHHSLRRPHRGPQFGSEVELRHSLAHRLYNIRNHHSLRRPHRGPQFGSEVELRHS
- dose dependence of CD59 shedding (CD59): dose-dependent
- effect on EGFP-GPI expression (EGFP-GPI [2]): little effect
- shedding of prion protein from cell surface (prion protein): efficiently shed
- radioactivity of released products compared with PI-PLC-released molecules, labeled on the ethanolamine (EGFP-GPI [3]; 3H ethanolamine label): a half
- radioactivity of released products compared with PI-PLC-released molecules, labeled on the phosphate (EGFP-GPI [3]; 32P phosphate label): about one-third
- released EGFP-GPI products with 32P or 3H labeling (EGFP-GPI [3]): detected
- effect on the transmembrane protein E-cadherin (E-cadherin): no effect
